We go through 1 sequence from US8980543B2, “Method of measuring enzyme activity by multi-dimensional nuclear magnetic resonance” (Canon Kabushiki Kaisha, priority 2007, dated 2015).

This experiment concerns the target T1, MMP2 (Homo sapiens, UniProt P08253).
T1 construct: purchased R&D systems Inc
T1 sequence (P08253 110-660): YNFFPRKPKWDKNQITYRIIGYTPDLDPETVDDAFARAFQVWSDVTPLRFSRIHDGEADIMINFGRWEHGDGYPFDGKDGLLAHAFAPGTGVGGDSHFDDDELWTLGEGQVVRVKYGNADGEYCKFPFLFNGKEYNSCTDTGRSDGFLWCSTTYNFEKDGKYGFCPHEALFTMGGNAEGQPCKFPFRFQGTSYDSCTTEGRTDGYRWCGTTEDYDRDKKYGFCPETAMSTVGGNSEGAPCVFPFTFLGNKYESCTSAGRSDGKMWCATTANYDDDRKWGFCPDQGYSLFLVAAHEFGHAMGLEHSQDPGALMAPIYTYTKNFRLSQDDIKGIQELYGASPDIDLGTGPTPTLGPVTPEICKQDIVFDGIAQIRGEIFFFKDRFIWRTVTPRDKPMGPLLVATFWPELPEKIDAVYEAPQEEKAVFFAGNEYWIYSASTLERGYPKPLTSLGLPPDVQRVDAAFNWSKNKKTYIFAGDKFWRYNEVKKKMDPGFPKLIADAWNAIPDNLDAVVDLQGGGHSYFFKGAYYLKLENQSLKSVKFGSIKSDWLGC
Nature of the experiment: Reaction between MMP2 and substrate peptide-probe, cleavage monitored by HPLC and MALDI-TOF-MS. In kind it is biochemical. As to conditions: 1 mM peptide, MMP2 1 μg, TCNB buffer pH 7.5, room temperature (25° C.), 18 hours; fragments GPLG and VRGK. As to the method:
A TCNB buffer (50 mM Tris, 10 mM CaCl2, 150 mM NaCl, 0.05% Brij 35, pH 7.5) was used as a buffer for an enzymatic reaction. A MMP2 precursor (R&D systems Inc.) was activated in 1 mM 4-aminophenylmercury acetate (APMA, manufactured by Sigma) in accordance with the protocol attached to the product to obtain activated MMP2 (hereinafter, simply referred to as MMP2). MMP2 (1 μg) was dissolved in 0.9 mL of the reaction buffer. To this solution, 780 μg of the substrate peptide synthesized above was added to obtain a solution containing a peptide in a concentration of 1 mM. The resultant solution was incubated at 25° C. for 18 hours.
The peptide was cleaved by an enzyme, MMP2. The peptide solution before and after the reaction with the enzyme was monitored by HPLC analysis (A=H2O/0.1% TFA and C═CH3CN/0.1% TFA; initial 5 minutes: 0% C, 5 to 35 minutes: 0 to 30% C, using an YMC HPLC column, YMC-Pack ODS-A (AAl2S05-2546WT) manufactured by YMC and having a length of 250 mm and an inner diameter of 4.6 mm; a particle diameter of 5 μm, a pore diameter of 12 nm, a flow amount of 0.8 mL/minute; and detection was made at UV of 220 nm). HPLC elution profiles of the peptide solution (MMP−) before treated with the enzyme and the peptide solution (MMP+) after treated with the enzyme are illustrated in FIG. 5.
The peak was separated and subjected to MALDI-TOF-MS analysis. […]

GPLGVRGK: the “cleavage of the isotope-labeled peptide by MMP2” value was “completely cleaved”.
